Values quoted from earlier work, collected in publication PMC5331467.

Molecular target: Tyr7 (UniProt position 7, SHHWGYGKHNG)
Experiment: NMR (jointly with neutron crystallography)

Substance: Carbonic anhydrase II (CA-II) (Homo sapiens)
- pKa: 7.1
